The results in this text go back to publication PMC8602850.

The target of the assay is gC1qR-ΔΔ, gC1qR deletion mutant that removed the flexible, negatively charged loops (UniProt Q07021). Nature of the assay: SPR; gC1qR-WT or gC1qR-ΔΔ immobilised; two-fold dilution series of analyte injected; reference-corrected sensorgrams fit to kinetic models; apparent KD. A general note: SPR reads the build-up and loss of mass on a sensor chip optically.
Chain of gC1qR-ΔΔ, gC1qR deletion mutant that removed the flexible, negatively charged loops (Q07021 74-282, stated change not applied): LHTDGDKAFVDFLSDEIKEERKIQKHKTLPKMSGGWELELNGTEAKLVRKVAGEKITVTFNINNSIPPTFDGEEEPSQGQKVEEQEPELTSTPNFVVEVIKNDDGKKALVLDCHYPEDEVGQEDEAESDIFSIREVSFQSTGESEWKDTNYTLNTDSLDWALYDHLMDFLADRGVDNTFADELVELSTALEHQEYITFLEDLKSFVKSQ

As to “SARS-CoV-2 Membrane-Envelope fusion protein, recombinant”, the Kd is 360 nM.
